The values below come from EP4239334A1 (Consorcio Centro de Investigación Biomédica en Red (CIBER), dated 2023).

Substitutions are numbered along the chain they refer to. Names and notes keep the numbering of the source.

In assay [1] the target is T1, NF-κB p65 subunit (endogenous, HEK-293T cells) (UniProt Q04206 1-551).
T1 construct: Endogenous protein co-precipitated with HA-IκBα from transfected HEK-293T cells; also called p65/NF-κB; p65/RelA
Description: PD and Co-IP.

In assay [2] the target is T2, NF-κB p50 subunit (endogenous, HEK-293T cells) (UniProt P19838 1-433, limits assumed).
T2 construct: Endogenous protein co-precipitated with HA-IκBα from transfected HEK-293T cells; also called p50 NF-κB
T2 sequence (looked up): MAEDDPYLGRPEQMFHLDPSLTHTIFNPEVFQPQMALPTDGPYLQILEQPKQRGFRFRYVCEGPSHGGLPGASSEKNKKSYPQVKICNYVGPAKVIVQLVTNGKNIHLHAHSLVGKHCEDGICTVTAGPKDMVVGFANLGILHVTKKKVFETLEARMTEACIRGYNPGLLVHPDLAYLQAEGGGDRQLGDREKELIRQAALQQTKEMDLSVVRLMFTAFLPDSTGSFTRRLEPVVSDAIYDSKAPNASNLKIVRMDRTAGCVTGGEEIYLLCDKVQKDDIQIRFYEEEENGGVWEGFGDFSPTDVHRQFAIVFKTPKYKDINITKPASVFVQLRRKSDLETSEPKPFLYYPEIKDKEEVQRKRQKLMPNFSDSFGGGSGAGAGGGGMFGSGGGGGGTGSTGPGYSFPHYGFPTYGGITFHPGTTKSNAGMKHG
Description: PD and Co-IP.

Assay [3] addresses T1, NF-κB p65 subunit (endogenous, HEK-293T …). Put plainly: Co-IP from transfected HEK-293T cells, WB.
The target in assay [4] is T2, NF-κB p50 subunit (endogenous, HEK-293T …). Put plainly: Co-IP from transfected HEK-293T cells, WB.
Assay [5] concerns the target T1, NF-κB p65 subunit (endogenous, HEK-293T …). Description: Co-IP of single point mutants, WB.
The target of assay [6] is T2, NF-κB p50 subunit (endogenous, HEK-293T …). Description: Co-IP of single point mutants, WB.

T1 sequence (Q04206 whole entry): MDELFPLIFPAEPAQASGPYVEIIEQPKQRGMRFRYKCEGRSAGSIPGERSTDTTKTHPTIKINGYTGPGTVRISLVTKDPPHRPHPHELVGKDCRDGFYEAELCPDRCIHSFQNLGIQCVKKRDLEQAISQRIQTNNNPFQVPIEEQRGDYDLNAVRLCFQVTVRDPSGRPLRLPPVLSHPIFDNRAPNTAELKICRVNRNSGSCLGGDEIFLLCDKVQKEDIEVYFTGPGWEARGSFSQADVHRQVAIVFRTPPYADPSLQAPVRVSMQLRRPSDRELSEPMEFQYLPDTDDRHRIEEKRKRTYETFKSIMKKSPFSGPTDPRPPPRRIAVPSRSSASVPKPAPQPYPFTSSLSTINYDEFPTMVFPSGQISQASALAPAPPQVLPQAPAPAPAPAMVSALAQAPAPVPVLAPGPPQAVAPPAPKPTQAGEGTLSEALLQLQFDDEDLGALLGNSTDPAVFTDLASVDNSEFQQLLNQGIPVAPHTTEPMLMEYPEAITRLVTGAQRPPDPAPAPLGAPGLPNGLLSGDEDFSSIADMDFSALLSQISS

B1: IκBα HEE84-86AAA / SOF^NF-κB (SEQ ID NO: 1) (other)
chain: MFQAAERPQEWAMEGPRDGLKKERLLDDRHDSGLDSMKDEEYEQMVKELQEIRLEPQEVPRGSEPWKQQLTEDGDSFLHLAIIAAAKALTMEVIRQVKGDLAFLNFQNNLQQTPLHLAVITNQPEIAEALLGAGCDPELRDFRGNTPLHLACEQGCLASVGVLTQSCTTPHLHSILKATNYNGHTCLHLASIHGYLGIVELLVSLGADVNAQEPCNGRTALHLAVDLQNPDLVSLLLKCGADVNRVTYQGYSPYQLTWGRPSTRIQQQLGQLTLENLQMLPESEDEESYDTESEFTEFTEDELPYDDCVFGGQRLTL
notes: Compose mutant of IκBα, expressed in HEK-293T cells; also called IκBα SOF^NF-κB; H84, E85, E86 to A; not shown: HA tag
Turning to B1, the binding result in assay [1] and in assay [2] was “binds” each time.

B2: IκBα compose mutant H84, E85, E86, N108, Q112 to A (other)
chain: B1 chain with N108A, Q112A
notes: not shown: HA tag
As for B2, the binding result in assay [3] and in assay [4] was “no binding” each time.

B3: IκBα D75A / SOF^PRC2 (SEQ ID NO: 2) (other)
chain: B1 chain with D75A, A84H, A85E, A86E
notes: Single point mutant of IκBα; also called IκBα SOF^PRC2; IkBa D75A; not shown: HA tag
Consider B3, for which the binding result in assay [5] and in assay [6] was “no binding” throughout.

B4: IκBα N108A / SOF^PRC2 (SEQ ID NO: 3) (other)
chain: B1 chain with A84H, A85E, A86E, N108A
notes: Single point mutant of IκBα; also called IκBα SOF^PRC2 mutant N108A; IkBa N108A; not shown: HA tag
B4: the binding result in assay [5] and in assay [6] was “no binding” in each case.
